These results are taken from patent US20050232920A1.

Experiment [1] deals with factor D purified from human serum (human) (UniProt P00746). The experiment can be described thus: SPR (BIAcore), MAb captured by rabbit anti-mouse IgG, factor D as analyte. For orientation: Surface plasmon resonance follows binding to a sensor surface in real time, without labels.
The target of experiment [2] is dog factor D (in dog serum) (dog). Put plainly: cell-based or functional assay. Particulars: scale: times less effective than on human factor D.
Experiment [3] deals with factor D purified from human serum (human) (UniProt P00746). Put plainly: cell-based or functional assay.
For experiment [4] the target is unchanged. The experiment can be described thus: SPR (BIAcore), factor D amine-coupled to the chip, MAb 166-32 as analyte.

Sequence of UniProt P00746 (P00746 26-253 N180D): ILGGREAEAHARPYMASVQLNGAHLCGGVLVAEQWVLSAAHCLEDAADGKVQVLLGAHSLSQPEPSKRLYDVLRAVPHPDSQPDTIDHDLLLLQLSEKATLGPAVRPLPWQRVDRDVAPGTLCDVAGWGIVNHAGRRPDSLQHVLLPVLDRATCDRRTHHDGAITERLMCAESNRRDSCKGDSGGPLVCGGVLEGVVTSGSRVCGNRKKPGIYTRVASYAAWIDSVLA

One may read the Kd as a measure of binding affinity in units of concentration. A word on the koff: it is the first-order rate constant of dissociation. What is called kon is the second-order rate constant of association. In experiment [1], MAb 166-32 (antibody) displayed a Kd of less than 100 pM, a koff of 0.00011 s⁻¹ and an on-rate constant (kon) greater than 1e+06 M⁻¹ s⁻¹. In addition, in experiment [2], the neutralization of factor D in hemolytic assays was greater than 10. Also, in experiment [3], the alternative complement activity of plasma from extracorporeal circuits (hemolysis of rabbit red blood cells) (molar ratio (MAb: factor D)) amounted to 1.5, the factor D dependent hemolysis of unsensitized rabbit RBCs (factor D depleted human serum with purified factor D added) worked out at 0.3 µg/mL and the factor D dependent hemolysis of unsensitized rabbit RBCs: molar ratio for inhibition (molar ratio (MAb 166-32 to factor D)) was determined as 0.5. Also, in experiment [4], the Kd was 160 pM, the koff worked out at 7.6e-05 s⁻¹ and the kon was found to be 460000 M⁻¹ s⁻¹.
